Experimental data published in patent publication US20090166224A1.

Assays:
[1] = target: Pregnancy zone protein in fucosidase-treated serum (human) (UniProt P20742); test: fucosidase-treated serum on M-LAC column, displacer fraction, LC-MS/MS; smaller rank = more abundant
[2] = target: Pregnancy zone protein in fucosidase-treated serum (human) (UniProt P20742); test: fucosidase-treated serum on M-LAC column, displacer fraction, extracted ion chromatogram of peptide … (so in the source)

Sequence of Pregnancy zone protein in fucosidase-treated serum (human) (P20742 26-1482 limits assumed): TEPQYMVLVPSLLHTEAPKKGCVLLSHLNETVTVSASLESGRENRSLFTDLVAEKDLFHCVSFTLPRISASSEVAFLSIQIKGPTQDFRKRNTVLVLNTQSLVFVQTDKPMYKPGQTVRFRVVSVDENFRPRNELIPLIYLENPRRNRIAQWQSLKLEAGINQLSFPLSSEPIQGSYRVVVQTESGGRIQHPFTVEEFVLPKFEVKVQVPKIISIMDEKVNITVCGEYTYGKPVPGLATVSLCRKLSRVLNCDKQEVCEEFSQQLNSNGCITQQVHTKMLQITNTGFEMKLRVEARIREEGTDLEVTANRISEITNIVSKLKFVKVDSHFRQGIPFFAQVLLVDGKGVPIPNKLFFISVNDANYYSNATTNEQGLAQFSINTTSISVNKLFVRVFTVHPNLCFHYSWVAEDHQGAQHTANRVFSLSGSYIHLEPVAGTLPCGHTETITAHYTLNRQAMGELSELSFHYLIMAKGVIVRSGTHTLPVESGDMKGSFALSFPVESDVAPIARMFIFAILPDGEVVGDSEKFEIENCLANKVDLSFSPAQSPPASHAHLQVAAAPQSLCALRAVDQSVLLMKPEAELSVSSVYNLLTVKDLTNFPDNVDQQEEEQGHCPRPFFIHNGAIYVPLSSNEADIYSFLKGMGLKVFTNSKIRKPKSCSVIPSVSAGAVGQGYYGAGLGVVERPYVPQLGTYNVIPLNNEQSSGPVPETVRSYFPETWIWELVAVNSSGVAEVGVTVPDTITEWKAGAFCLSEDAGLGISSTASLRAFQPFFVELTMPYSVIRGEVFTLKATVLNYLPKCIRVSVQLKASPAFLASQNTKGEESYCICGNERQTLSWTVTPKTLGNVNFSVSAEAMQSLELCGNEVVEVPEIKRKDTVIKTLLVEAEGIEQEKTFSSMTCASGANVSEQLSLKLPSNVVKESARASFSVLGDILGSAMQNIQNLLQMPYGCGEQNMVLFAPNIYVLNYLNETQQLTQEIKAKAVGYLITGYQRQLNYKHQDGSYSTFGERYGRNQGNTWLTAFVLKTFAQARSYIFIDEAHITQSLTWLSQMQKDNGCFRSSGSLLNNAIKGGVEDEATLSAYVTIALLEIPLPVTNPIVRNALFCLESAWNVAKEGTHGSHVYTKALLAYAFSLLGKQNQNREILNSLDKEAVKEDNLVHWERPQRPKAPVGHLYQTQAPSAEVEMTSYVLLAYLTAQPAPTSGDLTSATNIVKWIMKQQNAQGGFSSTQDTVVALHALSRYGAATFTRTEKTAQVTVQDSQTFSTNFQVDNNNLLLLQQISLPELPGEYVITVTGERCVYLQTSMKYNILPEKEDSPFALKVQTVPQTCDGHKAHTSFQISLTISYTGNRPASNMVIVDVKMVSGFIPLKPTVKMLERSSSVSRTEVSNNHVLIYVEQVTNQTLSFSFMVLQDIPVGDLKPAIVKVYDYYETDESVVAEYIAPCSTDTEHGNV

SEQUEST rank in displacer fraction [1]: 6
peptide peak area in displacer fraction [2]: 0 counts
B1: Jacalin lectin, agarose-bound (protein)
chain 1: GKAFDDGAFTGIREINLSYNKETAIGDFQVVYDLNGSPYVGQNHKSFITGFTPVKISLDFPSEYIMEVSGYTGNVSGYVVVRSLTFKTNKKTYGPYGVTSGTPFNLPIENGLIVGFKGSIGYWLDYFSMYLSL
chain 2: NEQSGKSQTVIVGSWGAKVS
modifications: immobilized on agarose
